# Source: paper PMC5716667
# Biological target: COPI coatomer (heptameric complex) (Chlamydomonas reinhardtii (endogenous in C. reinhardtii cells))
# Assay: cryo-EM structure; in situ cryo-electron tomography of cryo-FIB milled vitrified C. reinhardtii cells, reference-free subtomogram averaging of the COPI triad with three-fold symmetry, 20 Å; PDB 5A1U fitted as a rigid body; separate averages of buds, vesicles and Golgi regions
substance,measurement,value
COPI coatomer (heptameric complex),stoichiometry N,3
